Assay results reported in article PMC9014876, “Vault RNA1–1 riboregulates the autophagic function of p62 by binding to lysine 7 and arginine 21, both of which are critical for p62 oligomerization”.

Target: MBP-p62 WT (Homo sapiens, UniProt Q13501 1-440)
Assay: EMSA; 2.5 mM Mg2+; bacterial tRNA and BSA; EMSA: 20 mM HEPES pH 7.9, 100 mM KCl, 2.5 mM MgCl2, 5 mM DTT, 0.2 mM EDTA, 20% glycerol, 1 mg/mL BSA, 150 nM tRNA, room temperature; NMR: 20 mM MES pH 6.5, 100
Conditions: protein: recombinant; tags: MBP; label: 32P (internal alpha-UTP for EMSA; end-labelled for footprinting); base-paired terminal stem, central flexible loop

B1: vault RNA1-1 WT (structured_RNA)
RNA: GGCUGGCUUUAGCUCAGCGGUUACUUCGACAGUUCUUUAAUUGAAACAAGCAACCUGUCUGGGUUGUUCGAGACCCGCGGGCGCUCUCCAGUCCUUU
B1: binds.
